Where two headings read alike, the source gives them in different places.
B1: T. aurantiacus GH61A polypeptide: GH61A polypeptide having cellulolytic enhancing activity (SEQ ID NO: 14), recombinantly prepared in Aspergillus oryzae JaL250 (protein, listed as Thermoascus aurantiacus)
chain: MSFSKIIATAGVLASASLVAGHGFVQNIVIDGKYYGGYLVNQYPYMSNPPEVIAWSTTATDLGFVDGTGYQTPDIICHRGAKPGALTAPVSPGGTVELQWTPWPDSHHGPVINYLAPCNGDCSTVDKTQLEFFKIAESGLINDDNPPGIWASDNLIAANNSWTVTIPTTIAPGNYVLRHEIIALHSAQNQDGAQNYPQCINLQVTGGGSDNPAGTLGTALYHDTDPGILINIYQKLSSYIIPGPPLYTG

Legend:
[1] = system: Trichoderma reesei cellulase composition; format: biochemical
Procedure: (§1) Control saccharification reactions containing equivalent methanol-containing buffer concentrations, 2% and 10% (v/v) methanol, or no methanol, were performed on each 96-well plate. […] All experiments were performed in triplicate, unless otherwise indicated.
(§2) The filtrates were analyzed for sugar content as described below. […] Data were processed using MICROSOFT EXCEL® software (Microsoft, Richland, Wash., USA), or […]® software (Synergy Software, Reading, Pa., USA).
Similarly, the effect of each bicyclic compound tested in the absence of GH61 polypeptide was quantified by calculating the ratio of percent conversion for the T. reesei cellulase composition without supplemented GH61 polypeptide having cellulolytic enhancing activity in the presence of each compound to the percent conversion in the absence of each compound:
In general, the bicyclic compound effect(no GH61) was approximately 1, though the methanol solvent was inhibitory to cellulolysis (Example 3).

[2] = system: Trichoderma reesei cellulase composition; format: biochemical; settings: for GH61 effect: 2% methanol
Procedure: as §1, §2
[formula] where 1.111 represents the mass conversion factor accounting for the hydration of glucose produced from the cellulose polymer. The fractional hydrolysis is defined herein as the conversion expressed as a fraction rather than as a percent (i.e., % conversion/100).
[formula] […] Thus for saccharification reactions where only the presence of a bicyclic compound differs, a difference in GH61 effect can be attributed to the effect of the bicyclic compound on the cellulolytic enhancing effect of the GH61 polypeptide.

Molecule | effect on saccharification by the T. reesei cellulase composition ([1]; 2% and 10% (v/v) methanol) | bicyclic compound effect(no GH61) ([1]; 2% methanol, 3 days) | bicyclic compound effect(no GH61) ([1]; 2% methanol, 7 days) | bicyclic compound effect(no GH61) ([1]; 10% methanol, 3 days) | bicyclic compound effect(no GH61) ([1]; 10% methanol, 7 days) | GH61 effect ([2]; 3 days of hydrolysis) | GH61 effect ([2]; 7 days of hydrolysis) | GH61 effect (Equation 4) ([2]; 10% methanol, 3 days) | percent conversion in the presence of 50% (w/w) T. aurantiacus GH61A polypeptide ([2]; 10% methanol, 3 days of hydrolysis) [%] | percent conversion in the presence of 50% (w/w) T. aurantiacus GH61A polypeptide ([2]; 10% methanol, 7 days of hydrolysis) [%] | percent conversion in the presence of 50% (w/w) T. aurantiacus GH61A polypeptide ([2]; 3 days of hydrolysis, no bicyclic compound, no methanol, averaged over all plates) [%] | GH61 effect (Equation 4) ([2]; 3 days of saccharification, no bicyclic compound, no methanol) | percent conversion in the presence of 50% (w/w) T. aurantiacus GH61A polypeptide ([2]; 7 days of hydrolysis, no bicyclic compound, no methanol, averaged over all plates) [%] | GH61 effect (Equation 4) ([2]; 7 days of saccharification, no bicyclic compound, no methanol) | GH61 effect on AVICEL ([2]; in the absence of bicyclic compounds)
CO [methanol] | inhibited saccharification | 0.93 | 0.90 | 0.43 | 0.35 | – | – | – | – | – | – | – | – | – | –
B1 | – | – | – | – | – | 0.98±0.078 | 1.01±0.06 | 1.00±0.068 | 11.8±0.379 | 15.1±0.388 | 26.2±1.17 | 0.98±0.064 | 41.4±1.67 | 0.99±0.051 | 1

Source: patent US9458483B2, “Compositions comprising a polypeptide having cellulolytic enhancing activity and a bicyclic compound and uses thereof” (Novozymes, Inc., priority 2010, dated 2016)
